B1: BRASSINOSTEROID … 1-associated receptor kinase 1 (Arabidopsis thaliana (Mouse-ear cress)), Q94F62 (parent)
chain: MERRLMIPCFFWLILVLDLVLRVSGNAEGDALSALKNSLADPNKVLQSWDATLVTPCTWFHVTCNSDNSVTRVDLGNANLSGQLVMQLGQLPNLQYLELYSNNITGTIPEQLGNLTELVSLDLYLNNLSGPIPSTLGRLKKLRFLRLNNNSLSGEIPRSLTAVLTLQVLDLSNNPLTGDIPVNGSFSLFTPISFANTKLTPLPASPPPPISPTPPSPAGSNRITGAIAGGVAAGAALLFAVPAIALAWWRRKKPQDHFFDVPAEEDPEVHLGQLKRFSLRELQVASDNFSNKNILGRGGFGKVYKGRLADGTLVAVKRLKEERTQGGELQFQTEVEMISMAVHRNLLRLRGFCMTPTERLLVYPYMANGSVASCLRERPESQPPLDWPKRQRIALGSARGLAYLHDHCDPKIIHRDVKAANILLDEEFEAVVGDFGLAKLMDYKDTHVTTAVRGTIGHIAPEYLSTGKSSEKTDVFGYGVMLLELITGQRAFDLARLANDDDVMLLDWVKGLLKEKKLEALVDVDLQGNYKDEEVEQLIQVALLCTQSSPMERPKMSEVVRMLEGDGLAERWEEWQKEEMFRQDFNYPTHHPAVSGWIIGDSTSQIENEYPSGPR
B2: A-type flagellin (Pseudomonas aeruginosa), P21184 (parent)
chain: MALTVNTNIASLNTQRNLNNSSASLNTSLQRLSTGSRINSAKDDAAGLQIANRLTSQVNGLNVATKNANDGISLAQTAEGALQQSTNILQRMRDLSLQSANGSNSDSERTALNGEVKQLQKELDRISNTTTFGGRKLLDGSFGVASFQVGSAANEIISVGIDEMSAESLNGTYFKADGGGAVTAATASGTVDIAIGITGGSAVNVKVDMKGNETAEQAAAKIAAAVNDANVGIGAFSDGDTISYVSKAGKDGSGAITSAVSGVVIADTGSTGVGTAAGVTPSATAFAKTNDTVAKIDISTAKGAQSAVLVIDEAIKQIDAQRADLGAVQNRFDNTINNLKNIGENVSAARGRIEDTDFAAETANLTKNQVLQQAGTAILAQANQLPQSVLSLLR

Variants of: B1
Conditions: with flica_pseai fliC

| Variant | effect of a mutation on the interaction |
| --- | --- |
| L53A | decreasing interaction strength |
| V54Y | decreasing interaction strength |
| F60A;F144A | disrupting interaction strength |
| Y96A | decreasing interaction strength |

Variants of: B1
Conditions: with fls2_arath FLS2, Q9FL28
Target sequence in this assay (Q9FL28 whole entry): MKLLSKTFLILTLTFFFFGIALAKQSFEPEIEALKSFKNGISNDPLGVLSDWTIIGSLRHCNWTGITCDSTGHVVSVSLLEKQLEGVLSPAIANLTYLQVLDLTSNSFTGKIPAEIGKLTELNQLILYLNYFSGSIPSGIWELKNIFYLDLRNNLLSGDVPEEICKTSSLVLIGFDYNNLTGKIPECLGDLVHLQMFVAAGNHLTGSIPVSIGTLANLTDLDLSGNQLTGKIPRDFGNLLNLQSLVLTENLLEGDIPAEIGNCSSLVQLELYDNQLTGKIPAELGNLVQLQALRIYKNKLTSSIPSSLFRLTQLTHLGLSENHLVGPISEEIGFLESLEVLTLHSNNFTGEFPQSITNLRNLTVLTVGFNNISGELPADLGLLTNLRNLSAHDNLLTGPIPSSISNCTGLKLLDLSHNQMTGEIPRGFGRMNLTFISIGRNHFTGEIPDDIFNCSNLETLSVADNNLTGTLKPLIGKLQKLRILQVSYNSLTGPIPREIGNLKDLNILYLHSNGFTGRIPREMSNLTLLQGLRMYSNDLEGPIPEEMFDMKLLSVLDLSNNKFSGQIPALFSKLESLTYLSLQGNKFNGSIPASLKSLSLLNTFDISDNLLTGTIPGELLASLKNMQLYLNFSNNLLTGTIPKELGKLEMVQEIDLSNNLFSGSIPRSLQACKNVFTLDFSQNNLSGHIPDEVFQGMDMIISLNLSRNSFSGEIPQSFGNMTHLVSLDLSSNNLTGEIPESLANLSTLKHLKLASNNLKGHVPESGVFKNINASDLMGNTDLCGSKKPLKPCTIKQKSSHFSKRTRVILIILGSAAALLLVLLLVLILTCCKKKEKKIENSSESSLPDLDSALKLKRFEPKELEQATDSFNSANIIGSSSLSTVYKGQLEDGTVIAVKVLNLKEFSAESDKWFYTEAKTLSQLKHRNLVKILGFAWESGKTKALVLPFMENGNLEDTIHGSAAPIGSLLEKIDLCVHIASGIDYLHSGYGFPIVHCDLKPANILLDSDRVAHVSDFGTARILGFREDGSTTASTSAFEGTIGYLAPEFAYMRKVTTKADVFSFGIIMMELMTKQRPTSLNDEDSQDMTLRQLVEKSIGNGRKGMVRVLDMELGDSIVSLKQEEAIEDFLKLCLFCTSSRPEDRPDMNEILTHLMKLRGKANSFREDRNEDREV

| Variant | effect of a mutation on the interaction |
| --- | --- |
| L53A | disrupting interaction strength |
| V54Y | disrupting interaction strength |
| F60A;F144A | disrupting interaction strength |
| Y96A | disrupting interaction strength |

Variants of: B2
Conditions: with fls2_arath FLS2, Q9FL28
Target sequence in this assay (Q9FL28 whole entry): as above

| Variant | effect of a mutation on the interaction |
| --- | --- |
| A46Y | decreasing interaction strength |
| D44A | disrupting interaction strength |
| D43A | disrupting interaction strength |

Variants of: B2
Conditions: with bak1_arath BAK1, Q94F62

| Variant | effect of a mutation on the interaction |
| --- | --- |
| G47A | decreasing interaction strength |
| G47Y | disrupting interaction strength |

Source: IntAct's records for PubMed 24114786
